Reference: article PMC11199634

Biological target: LgBiT-PP1α, P62136
Assay: split-luciferase kinetic trace, competition with untagged SDS22
Conditions: chain shown with the change; 10 μM competitor added at t = 22 min; value read at the last time point (about 45 min); buffer control est. 160; parent: est. 83; read off a plot

Chain of LgBiT-PP1α, P62136 (P62136 whole entry): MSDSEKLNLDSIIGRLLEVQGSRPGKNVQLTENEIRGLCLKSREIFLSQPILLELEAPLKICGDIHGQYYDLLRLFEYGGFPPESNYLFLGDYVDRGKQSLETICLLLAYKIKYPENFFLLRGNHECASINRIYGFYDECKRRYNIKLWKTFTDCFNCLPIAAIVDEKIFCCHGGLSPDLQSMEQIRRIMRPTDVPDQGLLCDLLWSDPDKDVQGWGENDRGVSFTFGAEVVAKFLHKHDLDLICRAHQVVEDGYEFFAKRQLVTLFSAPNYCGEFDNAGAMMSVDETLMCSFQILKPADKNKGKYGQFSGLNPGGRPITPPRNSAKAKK

response (% of value at 22min): 150
B1: SDS22 (tag-free, purified), Q15435 E192A (protein)
chain: MAAERGAGQQQSQEMMEVDRRVESEESGDEEGKKHSSGIVADLSEQSLKDGEERGEEDPEEEHELPVDMETINLDRDAEDVDLNHYRIGKIEGFEVLKKVKTLCLRQNLIKCIENLEELQSLRELDLYDNQIKKIENLEALTELEILDISFNLLRNIEGVDKLTRLKKLFLVNNKISKIENLSNLHQLQMLALGSNRIRAIENIDTLTNLESLFLGKNKITKLQNLDALTNLTVLSMQSNRLTKIEGLQNLVNLRELYLSHNGIEVIEGLENNNKLTMLDIASNRIKKIENISHLTELQEFWMNDNLLESWSDLDELKGARSLETVYLERNPLQKDPQYRRKVMLALPSVRQIDATFVRF
